Reference: publication PMC4661386

Target: inter-alpha-inhibitor (IαI) (human) (UniProt P19827)
Sequence (P19827 whole entry, looked up): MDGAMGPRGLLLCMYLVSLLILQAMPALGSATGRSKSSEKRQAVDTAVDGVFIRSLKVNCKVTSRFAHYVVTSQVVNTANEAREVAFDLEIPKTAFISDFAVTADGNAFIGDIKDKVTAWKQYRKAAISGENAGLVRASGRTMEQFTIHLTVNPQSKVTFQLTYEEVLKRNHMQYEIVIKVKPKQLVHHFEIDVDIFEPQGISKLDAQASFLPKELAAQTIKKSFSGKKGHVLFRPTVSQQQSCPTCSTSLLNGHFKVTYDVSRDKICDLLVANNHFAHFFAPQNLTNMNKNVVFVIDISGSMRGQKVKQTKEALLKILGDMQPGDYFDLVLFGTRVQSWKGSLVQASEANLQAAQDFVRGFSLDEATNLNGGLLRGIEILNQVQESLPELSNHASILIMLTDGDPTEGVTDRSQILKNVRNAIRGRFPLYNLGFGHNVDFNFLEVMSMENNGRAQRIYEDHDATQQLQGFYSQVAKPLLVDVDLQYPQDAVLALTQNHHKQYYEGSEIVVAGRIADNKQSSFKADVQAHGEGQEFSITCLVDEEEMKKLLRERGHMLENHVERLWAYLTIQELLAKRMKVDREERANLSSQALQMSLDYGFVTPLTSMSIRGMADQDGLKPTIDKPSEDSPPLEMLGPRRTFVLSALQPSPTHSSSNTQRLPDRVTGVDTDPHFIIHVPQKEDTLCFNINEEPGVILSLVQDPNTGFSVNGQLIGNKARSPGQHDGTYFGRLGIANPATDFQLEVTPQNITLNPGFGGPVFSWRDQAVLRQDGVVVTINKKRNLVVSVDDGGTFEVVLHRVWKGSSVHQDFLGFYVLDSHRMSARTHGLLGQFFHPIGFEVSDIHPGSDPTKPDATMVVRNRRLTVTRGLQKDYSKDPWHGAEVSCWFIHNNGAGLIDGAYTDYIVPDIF

Full-length human TSG-6 (rhTSG-6) E183S mutant (from UniProt P98066 18-277) (natural protein)
amount of HC·TSG-6 product with added calcium ions (SDS-PAGE band intensity): 5 % of WT
